The results in this text go back to US10676765B2, “Methods for producing 3-hydroxy-3-methylbutyric acid” (Global Bioenergies, priority 2015, dated 2020).

Holding throughout (format): biochemical
A short description of data set [1]: Kinetic studies of the hydration reaction of 3-methylcrotonyl-CoA. As to conditions: 0-4 mM 3-methylcrotonyl-CoA, 0.01 mg/ml enzyme, 30° C., pH 7.0. As to the method:
(§1) The enzymatic assays were conducted in total reaction volume of 0.2 ml
(§2) The standard reaction mixture contained:
0-4 mM 3-methylcrotonyl-CoA
0.01 mg/ml 3-hydroxypropionyl-CoA dehydratase from Metallosphaera sedula.
Assays were incubated for 0, 2, 4, 8, 16 min with shaking at 30° C. and the reactions were stopped by the addition of 100 μl of acetonitrile. The amount of 3-hydroxyisovaleryl-CoA was quantified according to HPLC-based procedure described in Example 3.
The graph depicting 3-hydroxyisovaleryl-CoA formation as a function of time at different substrate concentrations is shown in the FIG. 15.

A short description of data set [2]: Enzyme-catalyzed hydrolysis of 3-methylcrotonyl-CoA into 3-methylcrotonic acid and free coenzyme A. As to conditions: 10 mM 3-methylcrotonyl-CoA, 1 mg/ml thioesterase, 30 min, 30° C.
Description: The gene coding for acyl-CoA thioesterase II from Pseudomonas putida was synthesized according to the procedure as described in Example 1.
The vector pCA24N which contained the gene encoding acyl-CoA thioesterase 2 (TesB) from Escherichia coli was purchased from NAIST (Nara Institute of Science and Technology, Japan, ASKA collection). This vector provided contained a stretch of 6 histidine codons after the methionine initiation codon.
The corresponding enzymes were produced according to the procedure described in Example 1.
The enzymatic assays were conducted in a total reaction volume of 0.2 ml.
as §2
10 mM 3-methylcrotonyl-CoA (Sigma-Aldrich)
1 mg/ml of purified recombinant thioesterase.
Control assays were performed in which either no enzyme was added or no substrate was added.
The assays were incubated for 30 min with shaking at 30° C., the reactions were stopped by the addition of 0.1 ml of acetonitrile and the samples were then analyzed by HPLC-based procedure.
HPLC analysis was performed using an 1260 Infinity LC System (Agilent), equipped with a column heating module and a UV detector (210 nm). […] The separation was performed using mixed A (H2O containing 8.4 mM sulfuric acid) and B (acetonitrile) solutions in a linear gradient (0% B at initial time 0 min→70% B at 8 min). […]

Data set [3] in a line: Enzyme-catalyzed hydrolysis of 3-hydroxyisovaleryl-CoA into 3-hydroxyisovaleric acid. To be noted: 10 mM 3-hydroxyisovaleryl-CoA, 1 mg/ml thioesterase, 30 min, 30° C. As for the experimental part: The gene coding for acyl-CoA thioesterase II from Pseudomonas putida was synthesized and the corresponding enzymes were further produced according to the procedure described in Example 1.
Provided vectors contained a stretch of 6 histidine codons after the methionine initiation codon. The corresponding enzymes were further produced according to the procedure described in Example 1.
as §1, §2
10 mM 3-hydroxyisovaleryl-CoA
1 mg/ml of purified thioesterase
The assays were incubated for 30 min with shaking at 30° C. and the reactions were stopped by the addition of 0.1 ml of acetonitrile. The amount of 3-hydroxyisovaleryl-CoA was quantified according to HPLC-based procedure described in Example 3.
In these conditions, the 3-hydroxyisovaleryl-CoA retention time was 4.40 min and coenzyme A (CoA) retention time was 3.96 min.
Additionally, 3-hydroxyisovaleric acid production was analyzed according to the procedure described en Example 6.

B1: 3-Hydroxypropionyl-CoA dehydratase from Metallosphaera sedula: recombinant His-tagged 3-hydroxypropionyl-CoA dehydratase (EC 4.2.1.116) from Metallosphaera sedula, Uniprot A4YI89 (protein, listed as Metallosphaera sedula)
chain: MEFETIETKKEGNLFWITLNRPDKLNALNAKLLEELDRAVSQAESDPEIRVIIITGKGKAFCAGADITQFNQLTPAEAWKFSKKGREIMDKIEALSKPTIAMINGYALGGGLELALACDIRIAAEEAQLGLPEINLGIYPGYGGTQRLTRVIGKGRALEMMMTGDRIPGKDAEKYGLVNRVVPLANLEQETRKLAEKIAKKSPISLALIKEVVNRGLDSPLLSGLALESVGWGVVFSTEDKKEGVSAFLEKREPTFKGK
modifications: His tag; strain ATCC 51363 /DSM 5348
notes: recombinant His-tagged 3-hydroxypropionyl-CoA dehydratase (EC 4.2.1.116) from Metallosphaera sedula, Uniprot A4YI89
A word on the Km: it is the concentration of substrate that gives half-maximal velocity. B1: in data set [1], the Michaelis constant (Km) was 300 µM and the “kcat for 3-methylcrotonyl-CoA” value was found to be 10 s⁻¹.

B2: tesB Escherichia coli: acyl-CoA thioesterase 2 from E. coli, Uniprot P0AGG2 (protein, listed as Escherichia coli)
chain: MSQALKNLLTLLNLEKIEEGLFRGQSEDLGLRQVFGGQVVGQALYAAKETVPEERLVHSFHSYFLRPGDSKKPIIYDVETLRDGNSFSARRVAAIQNGKPIFYMTASFQAPEAGFEHQKTMPSAPAPDGLPSETQIAQSLAHLLPPVLKDKFICDRPLEVRPVEFHNPLKGHVAEPHRQVWIRANGSVPDDLRVHQYLLGYASDLNFLPVALQPHGIGFLEPGIQIATIDHSMWFHRPFNLNEWLLYSVESTSASSARGFVRGEFYTQDGVLVASTVQEGVMRNHN
modifications: strain K12
notes: acyl-CoA thioesterase 2 from E. coli, Uniprot P0AGG2
For the molecule B2, in data set [2], the “3-methylcrotonic acid produced” value came out at 0.6 mM. The “Conversion, %” value in data set [3] is reported as 52%.

B3: tesB Pseudomonas putida: acyl-CoA thioesterase II from Pseudomonas putida, Uniprot Q88DR1 (protein, listed as Pseudomonas putida)
chain: MSHVLDDLVDLLSLESIEENLFRGRSQDLGFRQLYGGQVLGQSLSAASQTVEDARHVHSLHGYFLRPGDASLPVVYSVDRVRDGGSFSTRRVTAIQKGQTIFTCSASFQYDEEGFEHQAQMPDVVGPENLPTEVELAHAMADQLPERIRDKVLCAKPIEIRPVTERDPFNPKPGDPVKYAWFRADGNLPDVPALHKYMLAYASDFGLLTTALLPHGKSVWQRDMQIASLDHSLWFHGNLRADQWLLYATDSPWAGNSRGFCRGSIFNQAGQLVASSSQEGLIRHRKDWA
Take B3: the “3-methylcrotonic acid produced” value in data set [2] was 3.1 mM. Besides, in data set [3], the “Conversion, %” value is reported as 58%.
